Experiment [1] concerns the target T1, recombinant human TGFβ2 (human, UniProt P61812 303-414).
T1 sequence (looked up): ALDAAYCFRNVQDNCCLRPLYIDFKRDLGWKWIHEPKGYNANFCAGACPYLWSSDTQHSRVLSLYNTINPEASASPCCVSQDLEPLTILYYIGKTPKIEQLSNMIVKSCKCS
Description: cell-based or functional assay.

Experiment [2] deals with T2, TGFβ2 in rat tissue sections (rat, UniProt Q07257 331-442, limits assumed).
T2 construct: also called rat TGFβ2
T2 sequence (looked up): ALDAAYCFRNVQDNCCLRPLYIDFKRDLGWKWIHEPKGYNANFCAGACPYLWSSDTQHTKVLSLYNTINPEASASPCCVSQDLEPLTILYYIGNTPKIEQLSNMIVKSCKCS
Description: immunohistochemistry, 6B1 IgG4 at 500 ng/ml on pronase E treated rat kidney sections. The procedure: Paraffin embedded rat tissues were de-waxed and rehydrated through an alcohol series. The sections were then treated with 0.1% pronase E for exactly 8 min and then washed in water. TGFβ2 was detected in the sections using 6B1 IgG4 at 500 ng/ml following the protocol provided with a Vectastain ABC (avidin-biotin-complex) kit from Vector Laboratories. On kidney sections, bound antibody was located with alkaline phosphatase and peroxidase was used on rat brain tissues.

Experiment [3] concerns the target T1, recombinant human TGFβ2. Description: A549 cell radioreceptor assay (nM IgG). The procedure:
Aliqouts of ¹²⁵I-TGFβ1 or TGFβ2 (70-90 TBq/mmol; Amersham International) at 20 pM are preincubated with antibody in binding medium at room temperature for 1 h. Duplicate samples of 0.5 ml of TGFβ/antibody mixtures are then added to the cell monlayers and are incubated at 37° C. for 1-2 h. Control wells contain TGFβ only. Unbound TGFβ is removed by washing 4 times with Hank's balanced salt solution containing 0.1% BSA. Cells are solubilised in 0.8 ml 25 mM Tris HCl pH 7.5, 10% glycerol, 1% Triton X-100 at room temperature for 20 min. The contents of each well are removed and ¹²⁵I measured in a gamma counter.
The ability of 6B1 IgG4 to inhibit binding of TGFβ isoforms to receptors was measured in a radioreceptor assay as described in example 4.

In a further experiment the target is hen egg lysozyme (hen, UniProt P00698 19-147). Put plainly: ELISA, antigen coated at 10 µg/ml, anti-human Fc alkaline phosphatase conjugate, OD405 nm [a]. The procedure: (§1) For both FIG. 13(a) and FIG. 13(b), antigens 1 to 15 were used for coating the plate at a concentration of 10 μg/ml in PBS. The TGFbetas were coated at 0.2 μg/ml in PBS. Coating was performed at 4° C. overnight. […] of each antigen was used per well and duplicates of each antigen for each IgG to be tested. IgG samples were incubated with the coated antigens at 37° C. for 2 hours after blocking with 2%. marvel-PBS. The labelled second antibody was a mouse anti-human Fc1 alkaline phosphatase conjugated and the substrate used to detect bound second antibody was PNPP at 1 mg/ml with the absorbance read at 405 nm.
(An ELISA detects its analyte on a solid surface through an enzyme-linked reagent.)

In a further experiment the target is human insulin (human, UniProt P01308 25-54; P01308 90-110, limits assumed). The description is as above. The procedure:
as §1

For a further experiment, the target named is T3, bovine serum albumin (bovine, UniProt P02769 25-607).
T3 construct: also called BSA
The description is as above. The procedure:
as §1

The target in a further experiment is human serum albumin (human, UniProt P02768 25-609). Described as above. The procedure:
as §1

The target of experiment [4] is oxazolone-bovine serum albumin (bovine, UniProt P02769 25-607, oxazolone hapten coupled, sites not stated). The description is as above. As to the method:
as §1

The target in the next experiment is T4, human lymphotoxin (TNFβ) (human, UniProt P01374 35-205, limits assumed).
T4 sequence (looked up): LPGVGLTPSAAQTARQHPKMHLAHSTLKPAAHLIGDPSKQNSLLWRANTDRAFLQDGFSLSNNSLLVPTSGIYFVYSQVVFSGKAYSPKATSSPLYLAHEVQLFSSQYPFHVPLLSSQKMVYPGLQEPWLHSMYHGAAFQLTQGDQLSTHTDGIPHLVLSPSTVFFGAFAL
Described as above. As to the method: as §1

Experiment [5] addresses T5, chicken egg white trypsin inhibitor (chicken, UniProt P01005 25-210).
T5 sequence (looked up): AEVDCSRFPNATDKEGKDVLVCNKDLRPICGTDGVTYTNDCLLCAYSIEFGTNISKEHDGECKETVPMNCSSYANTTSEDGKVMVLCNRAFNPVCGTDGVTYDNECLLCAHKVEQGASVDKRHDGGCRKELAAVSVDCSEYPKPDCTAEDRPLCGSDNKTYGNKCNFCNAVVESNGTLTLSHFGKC
Described as above. As to the method:
as §1

Experiment [6] concerns the target irrelevant peptide …. Description: BIACore, peptide at 745 µM (1 mg/ml) over immobilised 6B1 IgG4 (5000RU).
In experiment [7] the target is T1, recombinant human TGFβ2. Description: cell-based or functional assay. The source holds these as a separate data set.
A further experiment has as its target recombinant human TGFβ1 (human, UniProt P01137 279-390). Put plainly: cell-based or functional assay.
Experiment [8] deals with T1, recombinant human TGFβ2. Put plainly: cell-based or functional assay. The source holds these as a separate data set.

Sequence of human serum albumin (P02768 25-609 limits assumed): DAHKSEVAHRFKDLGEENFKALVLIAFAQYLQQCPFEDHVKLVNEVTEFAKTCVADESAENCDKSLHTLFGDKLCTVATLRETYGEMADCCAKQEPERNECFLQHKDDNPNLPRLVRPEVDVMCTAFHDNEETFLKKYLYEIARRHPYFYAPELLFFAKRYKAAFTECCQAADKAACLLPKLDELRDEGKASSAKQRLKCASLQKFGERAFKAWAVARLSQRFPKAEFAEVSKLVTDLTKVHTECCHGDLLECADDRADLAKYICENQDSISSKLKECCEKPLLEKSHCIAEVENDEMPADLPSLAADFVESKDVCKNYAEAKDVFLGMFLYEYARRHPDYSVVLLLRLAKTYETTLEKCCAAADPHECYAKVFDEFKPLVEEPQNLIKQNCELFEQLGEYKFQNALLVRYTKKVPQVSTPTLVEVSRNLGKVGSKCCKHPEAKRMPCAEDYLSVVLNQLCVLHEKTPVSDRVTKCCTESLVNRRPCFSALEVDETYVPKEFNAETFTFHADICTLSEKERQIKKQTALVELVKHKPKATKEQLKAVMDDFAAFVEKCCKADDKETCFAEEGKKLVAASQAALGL
T3 sequence (P02769 25-607 limits assumed): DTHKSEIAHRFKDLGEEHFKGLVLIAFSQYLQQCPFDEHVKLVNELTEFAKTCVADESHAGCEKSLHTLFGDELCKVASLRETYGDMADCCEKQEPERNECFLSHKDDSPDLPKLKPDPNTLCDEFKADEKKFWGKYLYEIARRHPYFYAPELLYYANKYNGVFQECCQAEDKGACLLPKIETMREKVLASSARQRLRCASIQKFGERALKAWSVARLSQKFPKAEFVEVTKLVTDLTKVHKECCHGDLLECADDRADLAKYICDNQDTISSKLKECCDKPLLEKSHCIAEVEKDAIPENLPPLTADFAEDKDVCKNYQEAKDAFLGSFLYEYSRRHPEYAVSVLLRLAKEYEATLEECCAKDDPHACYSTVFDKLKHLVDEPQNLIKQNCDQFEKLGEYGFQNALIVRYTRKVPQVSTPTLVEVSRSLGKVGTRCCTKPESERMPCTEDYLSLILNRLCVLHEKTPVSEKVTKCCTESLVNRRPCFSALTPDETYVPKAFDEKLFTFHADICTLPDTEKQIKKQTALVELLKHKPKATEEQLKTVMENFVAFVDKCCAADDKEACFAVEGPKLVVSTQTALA
Sequence of oxazolone-bovine serum albumin (P02769 25-607 limits assumed): as above
Sequence of hen egg lysozyme (P00698 19-147): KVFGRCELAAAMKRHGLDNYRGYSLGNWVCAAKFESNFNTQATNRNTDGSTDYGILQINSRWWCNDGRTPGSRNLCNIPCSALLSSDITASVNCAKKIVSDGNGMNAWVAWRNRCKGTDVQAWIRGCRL
Sequence of recombinant human TGFβ1 (P01137 279-390 limits assumed): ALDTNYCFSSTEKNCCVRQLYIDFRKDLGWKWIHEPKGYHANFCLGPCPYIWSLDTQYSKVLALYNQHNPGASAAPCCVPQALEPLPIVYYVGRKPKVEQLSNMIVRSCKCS
Sequence of human insulin (P01308 25-54 limits assumed, chain 1 of 2): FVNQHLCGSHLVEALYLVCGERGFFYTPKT
Sequence of human insulin (P01308 90-110 limits assumed, chain 2 of 2): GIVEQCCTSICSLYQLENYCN

B1: 6B1 IgG4 (antibody, V domains shown)
VH: EVQLVESGGGVVQPGRSLRLSCAASGFTFSSYGMHWVRQAPGKGLEWVAVIWYDGSNKYYADSVKGRFTISRDNSKNTLYLQMDSLRAEDTAVYYCGRTLESSLWGQGTLVTVSS
VL: SSELTQDPAVSVALGQTVRITCQGDSLRSYYASWYQQKPGQAPVLVIYGKNNRPSGIPDRFSGSSSGNTASLTITGAQAEDEADYYCNSRDSSSTHRGVFGGGTKLTVLG
notes: Whole antibody: human gamma 4 and human lambda constant regions; FITC-labelled in the human tissue study; also called antibody 6B1
In the case of B1, in the experiment with recombinant human TGFβ2 [1], the “I.C.50 in TF1 assay (neutralisation of TGFβ2 inhibition of TF1 cell proliferation)” value worked out at 11 nM. Moreover, the binding result is recorded as “binds” in [2]; “no binding” with hen egg lysozyme; “no binding” with human insulin; “no binding” with bovine serum albumin; “no binding” with human serum albumin; “no binding” in experiment [4]. The binding result (with human lymphotoxin (TNFβ); in [5]) was “no binding” throughout. Further, the IC50 – broadly, the concentration needed to halve the response being measured – with recombinant human TGFβ2 [3] came out at 0.05 nM. Moreover, the amount of binding to 6B1 IgG4 surface, RU in experiment [6] was 60.9 RU. Besides, in the experiment with recombinant human TGFβ2 [7], the “IC50 in TF1 neutralisation assay, 6B1 IgG4 from GS/NS0 cell line 5D8-2A6” value stood at 1.8 nM. Further, the “TF1 cell proliferation assay IC50 (nM IgG)” value is above 100 nM in the experiment with recombinant human TGFβ1 and 2 nM with recombinant human TGFβ2 [8].

The values are drawn from patent US20050049403A1 (CAMBRIDGE ANTIBODY TECHNOLOGY, published 2005).
